In US20080286815A1, “SPECTROPHOTOMETRIC ASSAY FOR HUMAN HISTONE DEACETYLASE 8” (THE UNIVERSITY OF AKRON, priority 2007, published 2008) one finds Km and kcat data, which are given here for 1 protein.

Substrate in this data set: CSCC[C@H](NC(=O)[C@H](CC(C)C)NC(=O)[C@H](CCCC/N=C(/C)S)NC(=O)[C@H](CCCCN)NC(=O)[C@H](Cc1c[nH]cn1)NC(=O)[C@H](CCCN=C(N)N)NC(=O)[C@H](CO)NC(=O)[C@@H](NC(=O)[C@H](CO)NC(=O)[C@H](CCC(N)=O)NC(=O)CNC(=O)[C@H](CCCCN)NC(=O)[C@@H](N)CCCCN)[C@@H](C)O)C(=O)N[C@@H](Cc1ccccc1)C(=O)N[C@@H](CCCCN)C(=O)N[C@H](C(=O)N[C@@H](CCC(=O)O)C(=O)NCC(=O)O)[C@@H](C)O
Briefly: DTNB-based enzymatic assay with purified HDAC8. Format: biochemical, human. Conditions: other: peptide as in vitro HDAC8 substrate, 375 nM HDAC8, room temperature, 1 hour, pH 6.8. The protocol: DTNB-based enzymatic assay. The DTNB data shown in FIG. 4 was generated using the following procedure. A second portion (300 µL) of the above HDAC8 assay mixture was quenched with 600 µL of the stop solution: 3.2 M guanidinium chloride in 100 mM of sodium phosphate (pH 6.8), and was analyzed by the DTNB-based assay procedure according to the invention, i.e. 60 min after the quench and DTNB (100 µL) addition, A412 was recorded for each sample derived at different time points of the same assay reaction. Again, the same assay protocol was used when the HeLa nuclear extracts were used instead of human HDAC8. To measure the kinetic parameters for the thioacetyl-lysine p53 peptide as an in vitro HDAC8 substrate, all the assay reactions contained 375 nM of HDAC8, a range of substrate concentrations varied around the Km value, and were allowed to proceed at room temperature for 1 hour before quenching. Reaction velocities were determined under initial condition (substrate turnover <10%). This experiment was performed twice, and each duplicate measurement agreed within 20%. By using a non-linear least squares approach with the computer program Kaleidagraph (Reading, Pa., USA), kinetic parameters (kcat and Km) were derived from the Michaelis-Menten plot based on the experimental data.
Assay with purified HDAC8. […]

B1: human HDAC8 (Homo sapiens) (protein)
chain: MEEPEEPADSGQSLVPVYIYSPEYVSMCDSLAKIPKRASMVHSLIEAYALHKQMRIVKPKVASMEEMATFHTDAYLQHLQKVSQEGDDDHPDSIEYGLGYDCPATEGIFDYAAAIGGATITAAQCLIDGMCKVAINWSGGWHHAKKDEASGFCYLNDAVLGILRLRRKFERILYVDLDLHHGDGVEDAFSFTSKVMTVSLHKFSPGFFPGTGDVSDVGLGKGRYYSVNVPIQDGIQDEKYYQICESVLKEVYQAFNPKAVVLQLGADTIAGDPMCSFNMTPVGIGKCLKYILQWQLATLILGGGGYNLANTARCWTYLTGVILGKTLSSEIPDHEFFTAYGPDYVLEITPSCRPDRNEPHRIQQILNYIKGNLKHVV
Turning to B1, the Km worked out at 33.7 ± 7.2 µM and the kcat worked out at 0.00433 ± 0.00033 s⁻¹.

For orientation: Km means the substrate concentration at which the rate is half of its maximum. As usually defined, the kcat is the maximal rate divided by the concentration of active sites.
